Reference: US20170269069

B1: recombinant USP39 (enzyme, UniProt Q3TIX9 1-564, looked up, species assumed)
Ubiquitin carboxyl-terminal hydrolase 39: MSSRSKRQSHGSTRGKRESESRGSSGRIKKERDREKEPEAASSRGSPVRVKREAEPAAREVPAPALPVVRVKREREADEDSEPEREVRAKNGRVDSEDRRSRHCPYLDTINRSVLDFDFEKLCSISLSHINAYACLVCGKYFQGRGLKSHAYIHSVQFSHHVFLNLHTLKFYCLPDNYEIIDSSLEDITYVLKPTFTKQQIANLDKQAKLSRAYDGTTYLPGIVGLNNIKANDYANAVLQALSNVPPLRNYFLEEDNYKNIKRPPGDIMFLLVQRFGELMRKLWNPRNFKAHVSPHEMLQAVVLCSKKTFQITKQGDGVDFLSWFLNALHSALGGTKKKKKTIVNDVFQGSMRIFTKKLPHPDLPAEEKEQLLHNDEYQETMVESTFMYLTLDLPTAPLYKDEKEQLIIPQVPLFNILAKFNGITEKEYKTYKENFLKRFQLTKLPPYLIFCIKRFTKNNFFVEKNPTIVNFPITNVDLREYLSEEVQAVHKNTTYDLIANIVHDGKPSEGSYRIHVLHHGTGKWYELQDLQVTDILPQMITLSEAYIQIWKRRDNDETNQQGA
modifications: His tag
B2: recombinant DIM1 (enzyme, UniProt P83877 1-142, looked up, species assumed)
Thioredoxin-like protein 4A: MSYMLPHLHNGWQVDQAILSEEDRVVVIRFGHDWDPTCMKMDEVLYSIAEKVKNFAVIYLVDITEVPDFNKMYELYDPCTVMFFFRNKHIMIDLGTGNNNKINWAMEDKQEMVDIIETVYRGARKGRGLVVSPKDYSTKYRY
modifications: His tag

System: recombinant histone H3, wild type

Protein	H3NT protease activity (in vitro H3NT cleavage assay, Western blot with the H3CT antibody)
B1	only rMMP-9 possessed H3NT protease activity
B2	only rMMP-9 possessed H3NT protease activity
